In patent US20230020089A1:

Assays:
[1] = biological target: […] presented by HLA-A*0201 (HCMV; human); assay: cell-based or functional assay
[2] = biological target: […] presented by HLA-A*0201 (EBV; human); assay: cell-based or functional assay

TCR recognizing […] presented by A*0201 (PDB #5D2N)
luciferase induction, reporter T cells + U-87 APCs, short cassette 9AA (relative to uninfected controls) [1]: 33.6
luciferase induction, reporter T cells + U-87 APCs, short cassette 17AA (relative to uninfected controls) [1]: 42.8
luciferase induction, reporter T cells + U-87 APCs, short cassette 25AA (relative to uninfected controls) [1]: 42.3
luciferase induction, reporter T cells + U-87 APCs, short cassette AAY (relative to uninfected controls) [1]: 24.5
luciferase induction, reporter T cells + U-87 APCs, short cassette DPP (relative to uninfected controls) [1]: 0.9
luciferase induction, reporter T cells + U-87 APCs, short cassette RR (relative to uninfected controls) [1]: 21.7
luciferase induction, reporter T cells + U-87 APCs, targeting cassette A [1]: 32.5
luciferase induction, reporter T cells + U-87 APCs, targeting cassette B [1]: 31.8
luciferase induction, reporter T cells + U-87 APCs, targeting cassette C [1]: 29.1
luciferase induction, reporter T cells + U-87 APCs, targeting cassette D [1]: 29.1
luciferase induction, reporter T cells + U-87 APCs, targeting cassette E [1]: 28.4
luciferase induction, reporter T cells + U-87 APCs, targeting cassette F [1]: 20.4
luciferase induction, reporter T cells + U-87 APCs, targeting cassette G [1]: 35
luciferase induction, reporter T cells + U-87 APCs, targeting cassette H [1]: 30.3
luciferase induction, reporter T cells + U-87 APCs, targeting cassette J [1]: 38.1
luciferase induction, reporter T cells, short cassette AAY [1]: 24.5

TCR recognizing […] presented by A*0201 (PDB #3REV)
luciferase induction, reporter T cells + U-87 APCs, short cassette 9AA (relative to uninfected controls) [2]: 12
luciferase induction, reporter T cells + U-87 APCs, short cassette 17AA (relative to uninfected controls) [2]: 10.3
luciferase induction, reporter T cells + U-87 APCs, short cassette 25AA (relative to uninfected controls) [2]: 14.6
luciferase induction, reporter T cells + U-87 APCs, short cassette AAY (relative to uninfected controls) [2]: 11.3
luciferase induction, reporter T cells + U-87 APCs, short cassette DPP (relative to uninfected controls) [2]: 1.1
luciferase induction, reporter T cells + U-87 APCs, short cassette RR (relative to uninfected controls) [2]: 8.5
luciferase induction, reporter T cells + U-87 APCs, targeting cassette A [2]: 6.1
luciferase induction, reporter T cells + U-87 APCs, targeting cassette B [2]: 6.3
luciferase induction, reporter T cells + U-87 APCs, targeting cassette C [2]: 7.6
luciferase induction, reporter T cells + U-87 APCs, targeting cassette D [2]: 7
luciferase induction, reporter T cells + U-87 APCs, targeting cassette E [2]: 5.9
luciferase induction, reporter T cells + U-87 APCs, targeting cassette F [2]: 3.7
luciferase induction, reporter T cells + U-87 APCs, targeting cassette G [2]: 7.6
luciferase induction, reporter T cells + U-87 APCs, targeting cassette H [2]: 5.4
luciferase induction, reporter T cells + U-87 APCs, targeting cassette J [2]: 6.4
luciferase induction, reporter T cells, short cassette AAY [2]: 11.3
